Experimental data from the nanobody polyreactivity screen of Harvey et al. (2022).

Test: yeast display, Sf9 membrane polyspecificity reagent, FACS + sequencing; frameworks hold sequencing errors
In short: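 Galactose induction of a Saccharomyces cerevisiae BJ5465 synthetic nanobody display library ran 36–48 hours. The cells were then stained for 1 hour at 4 °C with 10% biotinylated, detergent-solubilized Sf9 membrane reagent, pulled down on streptavidin microbeads and FACS-sorted into low and high (top ~1%) gates on expression and reagent-binding fluorescence. Labels for polyreactivity follow the gate of origin.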

Q: For “QVQLVESGGGLDQAGVRLRLSCAASGRIVSSYAMGWYRQAPGKERELVAAIRRGGGSTSYADSVKGRFTISRDNAKKTVYLQMNSLKPEDTAVYYCAADSPRGQVHYIGGYWGQGTQVTVSS”, which “polyreactivity (PSR sort gate)” value is on record?
A: Its value is “low polyreactivity”.

Q: With “QVQLVESGGGLDQAGVSLRLSCAASGNIFSWNTMGWYRPAPGKERELVAAITFRGTRTFYADSVKGRFTISRDNAKNNVYLHMNSLKPEDTAVYYSAARYYYSYSLGYDYWGQGTQVTLSS” as the sequence, how does the “polyreactivity (PSR sort gate)” value read?
A: The value was “high polyreactivity”.

Q: With “QVQLVESGGGLDQARGSLRLSCAASGFIFQIYAMGWYRQAPGKERELVAAITSRAGSTYYADSVKGRFTISRDNAKNTVYFQMNSLKPEDTAVYFCNKVFFLPTSRAYEYWGQGTQVTVSS” as the sequence, how does the “polyreactivity (PSR sort gate)” value read?
A: The value was “high polyreactivity”.

Q: Which “polyreactivity (PSR sort gate)” value does the source give for “QVQLVESGGGLDQARGSLRLSCAASGSIFGENAMGWYRQAPGKERELVAAISTSGGTTYYADSVKGRFTISRDNAKNTVYLQMNSLKPEDTAVYYCAKPYTSFSPYDYWGQGTQVTVSS” here?
A: The value was “low polyreactivity”.

Q: For “QVQLVESGGGLDQARGSLRLSCAASGSITTFYAMGWSRQAHGKERELVAAISSSGGSTYYADSVKGRFTISRDNAKNTVYLQMNSLKPEDTAVYSCAAKGYPSRYSYGWYNYWGQGTQVTLSS”, which “polyreactivity (PSR sort gate)” value is on record?
A: The value was “high polyreactivity”.

Q: With “QVQLVESGGGLDQARGSLRLSCAASGSTFKSYVMGWYRQAPGKVRELVAAISQSGGNTNYADSVKGRFTISRDNAKNTVYLQMNSLKPEDTAVDYCAADVLGTTTTVGGFNYWGQGTQVTVSS” as the sequence, how does the “polyreactivity (PSR sort gate)” value read?
A: Its value is “low polyreactivity”.

Q: For “QVQLVESGGGLDQAVGSLRLSCAASGSIFKPYAMGWYRQAPGKERELVAGITAGGGSTYYADSVKGRFTISRDNAKNTVYLQMNSLKPEDTAVYYCSVDPYNIFTDDIVENDYWGQGTQVTVSS”, which “polyreactivity (PSR sort gate)” value is on record?
A: Its value is “low polyreactivity”.

Q: With “QVQLVESGGGLDQEGGSLRLSSAASGRTFRGYAMGWYIQAPGKEREIVDAISRGTVGTYYADSVKGRFTISRDNAKNTVYLQMISLKPEDTAVYYCAADRFANFSNLRLGYYSWGQGTQLTVSS” as the sequence, how does the “polyreactivity (PSR sort gate)” value read?
A: The value was “low polyreactivity”.

Q: With “QVQLVESGGGLEQAGGSLRLSCAASGRTLPIYAMGWYIQAPGKERELVAAISWSGASTYADSVKGRFTISRDNAKNTVYLQMTSLKPEETAVYYCAAYYVYWYSSYGYGYWGQGTQVTVSS” as the sequence, how does the “polyreactivity (PSR sort gate)” value read?
A: The value was “low polyreactivity”.

Q: With “QVQLVESGGGLFHAGGSLRLSCAASGSTFTDDDMGWYRQAPGKERELVAAMSWSGGSTYYADSVKGRFTISRDNAKNTVYLQMNSLKPDDTADYYCAFRYHGYDYWGQGTQVTVSS” as the sequence, how does the “polyreactivity (PSR sort gate)” value read?
A: Its value is “high polyreactivity”.

Q: For “QVQLVESGGGLFKAGGSLRLSCAASGSTLPGYAMGWYRQAPGKERELVAAITGSGGRTYYADSVKGRFTISRDNAKYTVYLQMNSLKPEDTAVYYCGRGQRVYRSQGDYWGQGSQVTVSS”, which “polyreactivity (PSR sort gate)” value is on record?
A: Its value is “high polyreactivity”.

Q: Which “polyreactivity (PSR sort gate)” value does the source give for “QVQLVESGGGLFQAGGNLRLSCAASGRTFYPNAMGWYRQAPGKERELVAGIRSSGDSTYYADSVKVRFTISRDNAKNTVYFQMNSLKPEDTAVYYCNRDLTPSYDYWGQGSQVTVSS” here?
A: The value was “low polyreactivity”.

Q: With “QVQLVESGGGLFQAGGRLRLSCAASGITFVYYAMGWSRQAPGKERELVAAISWGGGSTYYADSVKGRFTISSDNAKNTVYLQMNSLKPEDTAVYYCAADAYVNATPEVSAMGYWGQGTQVTVSS” as the sequence, how does the “polyreactivity (PSR sort gate)” value read?
A: Its value is “low polyreactivity”.

Q: With “QVQLVESGGGLFQAGGSHRLSCAASGSTFTPYAMGWYRQAPGKEREFVARISWTGGSTYYADSVKGRFTISRDNAKNTVYLQMNSLKPEDTAVYYCAARYGYSYYRRDYWGQGTQVTVSS” as the sequence, how does the “polyreactivity (PSR sort gate)” value read?
A: Its value is “high polyreactivity”.

Q: For “QVQLVESGGGLFQAGGSILLSCPASGSTFDNYSMGWYRQAPGKERELVAGISWSGGSTFYADSVKGRFTISRDNAKYTVYLQMNSLKTEDTAVYYCAARIRYLDVRDNDNYYWGQGTQVTVSS”, which “polyreactivity (PSR sort gate)” value is on record?
A: Its value is “low polyreactivity”.

Q: Which “polyreactivity (PSR sort gate)” value does the source give for “QVQLVESGGGLFQAGGSLRISCAASGLTFKINAMGWYRQAPGKERELVAAISSGTSTNYADSVKGRFTISRDNAKNTVYLQMNSLKPEDTAVYYCAARGFWGVAYRYYYWGQGTQVTVSS” here?
A: Its value is “high polyreactivity”.

Q: With “QVQLVESGGGLFQAGGSLRISCAASGSTFLVNAMGWYRQAPGKEREFVAAITWTGGSTYYADSVKGRFTISRDNAKNSVYLQMNRLKPEDTAVYYCNTDWTYYGDQYRRGGYWGQGTQVTVSS” as the sequence, how does the “polyreactivity (PSR sort gate)” value read?
A: The value was “low polyreactivity”.

Q: Which “polyreactivity (PSR sort gate)” value does the source give for “QVQLVESGGGLFQAGGSLRISCAASGTFVTYMGWYRQAPGKERELVAAIRNGGSTNYADSVKGRFTISRDNAKNTVYLQMNSLKPDDTAVYYCAARVTYSRGYRGGSRNKYDYWGQGTQVTLSS” here?
A: The value was “low polyreactivity”.

Q: With “QVQLVESGGGLFQAGGSLRITCAASGITFSYNAMGWYRQAPGKVRELVAGITWSGGSTYYADSVTGRFTISRDNAKNTVYLQMYSVKREDTAVYYCAASRSFPGYGLYYYWGQGTQVTVSS” as the sequence, how does the “polyreactivity (PSR sort gate)” value read?
A: Its value is “low polyreactivity”.

Q: Which “polyreactivity (PSR sort gate)” value does the source give for “QVQLVESGGGLFQAGGSLRLICAASGFIFGGSDMGWYRQAPGKERELVAAISRSGGSTYYADYVKGRFTISRDNAKNTVYLQMNSMKREDTAVYYCNSVPRRQGFNYLGQGTQVTVSS” here?
A: The value was “high polyreactivity”.

Q: For “QVQLVESGGGLFQAGGSLRLRCAASGFIFGVNAMGWYRQAPGKERELVAAITSTGGRTYYADSVKGRFTISRDNAKNTVYLQMNSLKPVDTAVYFCARYQTGGYGYWGQGTQVTVSS”, which “polyreactivity (PSR sort gate)” value is on record?
A: Its value is “high polyreactivity”.

Q: For “QVQLVESGGGLFQAGGSLRLSCAASGFIFGQNAMGWYRQAPGKERELVAAIDWTGGRTYYADSVKGRFTISRDNAKNTVYLQMNSLKPEDTAVYYCAADGVWYADSPYSIHYGYWGQGTQVTVSS”, which “polyreactivity (PSR sort gate)” value is on record?
A: The value was “low polyreactivity”.

Q: With “QVQLVESGGGLFQAGGSLRLSCAASGFTCSGYAMGWYRPAPGKERELVAGISASAGSTYADSVKGRFTISRDNAKNTVYLQMNSLKPEDTAVYYCAADLSFKAAIWFNEYGYWGQGTQVTVSS” as the sequence, how does the “polyreactivity (PSR sort gate)” value read?
A: Its value is “low polyreactivity”.

Q: With “QVQLVESGGGLFQAGGSLRLSCAASGFTIEWYAMGWYRQAPGKERELVATITSSGDSTYYADSEKGRFTISRDNAKNTVYFQMYSLKPEDTAVYYCNVDNSVYDFSEYVYWGQVTQVTVSS” as the sequence, how does the “polyreactivity (PSR sort gate)” value read?
A: Its value is “high polyreactivity”.

Q: Which “polyreactivity (PSR sort gate)” value does the source give for “QVQLVESGGGLFQAGGSLRLSCAASGFTSLWYGIGWYRPAPGKERELVAAITSDSSTYYADSVKGRFTISRDNAKNTVYLQMYSLKPQDTAVYSCAKYFVYVGYGRYAFWGQGTQVTVSS” here?
A: Its value is “low polyreactivity”.

Q: For “QVQLVESGGGLFQAGGSLRLSCAASGIIFPRYMGWYRQAPGKERELVAAIRWSSDDTNYADSVKGRFTISRDNAKNTVYLQMNSLKPEDTAVYYCAADSYYDRTIQFEFSARTYEYWGQGTQVTVSS”, which “polyreactivity (PSR sort gate)” value is on record?
A: The value was “low polyreactivity”.

Q: With “QVQLVESGGGLFQAGGSLRLSCAASGIIFYVNDMGWYRQAPGKERELVADISGGTSTNYADSVKGRFTISRDNAKNTVYLQMNSLKPEDTAVYYCATAFIVQFPGSDYWGQGTQVTVSS” as the sequence, how does the “polyreactivity (PSR sort gate)” value read?
A: The value was “low polyreactivity”.

Q: With “QVQLVESGGGLFQAGGSLRLSCAASGRIFAYYTMGWYIQAPGKERELVAAITKRGGSTYYADSVKGRFTISRDNAKNTFYLQMNSLKPEDTAVYYCAADPNRYRYRSPHDYWGQGTQVTVSS” as the sequence, how does the “polyreactivity (PSR sort gate)” value read?
A: The value was “high polyreactivity”.

Q: Which “polyreactivity (PSR sort gate)” value does the source give for “QVQLVESGGGLFQAGGSLRLSCAASGRIFGNNTMGWYRQAPGKERELVAAINSGGRTYYADSVKGRFTISRDNAKYTVYLQMNSLKTEDTAVYYCATTTYKRFYRAPTSKYDYWGQGTLVTVSS” here?
A: Its value is “high polyreactivity”.

Q: Which “polyreactivity (PSR sort gate)” value does the source give for “QVQLVESGGGLFQAGGSLRLSCAASGRILDYYAMGWYRQAPGKERELVAAIRRRGVITYADSVKGRFTISRDNAKNTVYLLMKSLKPEDTAVYYCAAGGYEYGYWGQGTQVTVSS” here?
A: The value was “low polyreactivity”.
